Laboratory results reported in the Human Domainome abundance scans (Beltran et al. 2025).

B1: Protein maelstrom homolog, residues 3 to 71; numbered along this chain, Q96JY0 (parent)
chain: NRKASRNAYYFFVQEKIPELRRRGLPVARVADAIPYCSSDWALLREEEKEKYAEMAREWRAAQGKDPGP

Variants of: B1
Assay: abundance fitness (aPCA) (normalised: wild type 0, dead -1); higher = more abundant; growth selection in yeast, the domain comes from the species named
Conditions: Homo sapiens

Abundance fitness: each site, then its substitutions
R23: H -0.467
P35: Q -0.451, S -0.628, L -0.713, V -0.78, E -0.289, W -0.756, Y -1.07, N -0.266, D -0.181, H 0.058, K 0.049, A -0.435, T -0.554, M -0.18, I -0.524, G -0.224, F -0.862
R21: G 0.058, L -0.024, E -0.496
Q14: G -0.303, F -0.299, A -0.171, T -0.186, H -0.618, W -0.014, R -0.074, P -0.724, E 0.135, I -0.228, S -0.196, M -0.023, Y -0.145, C -0.148, L -0.079, D 0.054, V -0.265
G24: A -0.398, S -0.773, D -0.311
S38: Y -0.06, V 0.073, G 0.193, F -0.223, M -0.154, L -0.132, R 0.171, C -0.337, Q 0.155
F12: N -0.624, M -0.53, D -0.403, I -0.97, E -0.778, L -0.713, G -0.531, K -0.851, V -0.757, Y 0.013, S -0.7, H -0.847, W -0.404, C -0.621, R -0.797, P -0.869
P26: R -0.431
A31: L -0.291, R -0.06, W -0.286, K 0.161, C 0.085, P -0.019, Q -0.21, V -0.1, I -0.603, E 0.131, S -0.047, Y -0.178, G -0.099
I34: D 0.113, W -0.04, F 0.091, L -0.17, V -0.137, Y -0.064, S -0.229, H -0.307, R -0.148, N -0.06, G -0.198, T -0.19, C -0.203, K 0.406, Q -0.25, A -0.133, M 0.069, E -0.113
V13: G -0.797, I -0.375, L -0.32, F -0.532
R22: P -0.763, G -0.14, T -0.242, K 0.162, L -0.11, A 0.006, V -0.738, S -0.046, C -0.791, M -0.261, I -0.732, N -0.154, Y -0.583, H -0.036, D -0.079, W -0.557
L20: G -0.739, D -0.772, C -0.611, M -0.334, N -0.642, P -0.989, T -0.62, K -0.88, S -0.844, W -0.673, R -0.959, A -1.1, H -0.953, I -0.636, Q -0.797, V -0.677
Y10: E -0.065, R -0.358, I -0.657, D 0.185, W -0.175, T -0.427, M -0.361, F 0.085, G -0.5, Q -0.254, P -1.07, K -0.454, S -0.552, C -0.643, L -0.332, N 0.15, V -0.498
C37: A -0.19, V -0.137, Q -0.636, F -0.55, L -0.244, E -0.636, G -0.557, T -0.434, S -0.561, R -0.731, Y -0.741, I -0.229, M -0.291, K -0.719
R29: P -1.09, H -0.113
